Test results taken from paper PMC3556126, “The site-specific integration reaction of Listeria phage A118 integrase, a serine recombinase”.

Experiments:
[1] = target: T1, A118 integrase (HisInt) (Listeria monocytogenes phage A118, UniProt Q8Y4U8 1-452); experiment: EMSA; conditions: 20 mM HEPES pH 7.5, 100 mM NaCl, 0.1 mg/ml BSA, 5 mM spermidine, 5 mM DTT, 5% glycerol, 50 ug/ml salmon sperm DNA, about 0.1 pmol probe in 10 ul, 30 C 30 min …
T1 sequence: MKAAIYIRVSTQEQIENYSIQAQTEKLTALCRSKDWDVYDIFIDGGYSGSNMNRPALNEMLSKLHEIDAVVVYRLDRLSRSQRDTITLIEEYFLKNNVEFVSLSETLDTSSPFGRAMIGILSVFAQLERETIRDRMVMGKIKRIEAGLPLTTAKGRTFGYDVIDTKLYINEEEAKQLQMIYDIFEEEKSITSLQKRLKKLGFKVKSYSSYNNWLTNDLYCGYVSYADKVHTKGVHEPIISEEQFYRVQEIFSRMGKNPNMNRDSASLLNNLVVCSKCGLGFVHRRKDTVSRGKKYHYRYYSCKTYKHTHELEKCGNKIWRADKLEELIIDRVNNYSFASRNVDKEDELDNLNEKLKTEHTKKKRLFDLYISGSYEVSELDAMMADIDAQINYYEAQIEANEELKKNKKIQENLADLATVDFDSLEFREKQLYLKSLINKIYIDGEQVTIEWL

[2] = target: T2, A118 integrase C-terminal domain (HisInt158-452) (Listeria monocytogenes phage A118) (UniProt Q8Y4U8); experiment: EMSA; conditions: mainly complex I, 20 mM HEPES pH 7.5, 100 mM NaCl, 0.1 mg/ml BSA, 5 mM spermidine, 5 mM DTT, 5% glycerol, 50 ug/ml salmon sperm DNA, about 0.1 pmol probe in 10 ul, 30 C 30 min …
T2 sequence: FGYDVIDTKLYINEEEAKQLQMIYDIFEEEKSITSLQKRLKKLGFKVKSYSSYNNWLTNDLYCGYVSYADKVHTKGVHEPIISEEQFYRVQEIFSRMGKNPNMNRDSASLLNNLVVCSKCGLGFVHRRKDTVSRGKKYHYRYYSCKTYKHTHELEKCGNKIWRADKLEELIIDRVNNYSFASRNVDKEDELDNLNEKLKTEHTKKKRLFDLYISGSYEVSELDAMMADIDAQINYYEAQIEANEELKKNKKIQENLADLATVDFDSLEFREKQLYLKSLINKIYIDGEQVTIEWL

[3] = target: Listeria phage A118 integrase, N-terminally histidine tagged, full-length (Listeria phage A118); experiment: SEC; FPLC Superdex-200 10/300 GL; 20 mM HEPES pH 7.5, 1 M NaCl, 1 mM DTT, 10% glycerol; 0.4 ml/minute; 23°C
[4] = target: T1, A118 integrase (HisInt); experiment: EMSA; 810 nM; 20 mM HEPES pH 7.5, 100 mM NaCl, 0.1 mg/ml BSA, 5 mM spermidine, 5 mM DTT, 5% glycerol, 50 ug/ml salmon sperm DNA, about 0.1 pmol probe in 10 ul, 30 C 30 min; 6% PAGE in 0.5x TBE at room temperature; conditions: protein: recombinant; tags: N-terminal His (pET15b); chain copies: 2; label: 32P; blunt
[5] = target: T3, A118 integrase C-terminal domain (HisInt158-452) (Listeria monocytogenes phage A118, UniProt Q8Y4U8 158-452); experiment: as above; conditions: protein: recombinant; tags: N-terminal His (pET15b); label: 32P; blunt
T3 sequence: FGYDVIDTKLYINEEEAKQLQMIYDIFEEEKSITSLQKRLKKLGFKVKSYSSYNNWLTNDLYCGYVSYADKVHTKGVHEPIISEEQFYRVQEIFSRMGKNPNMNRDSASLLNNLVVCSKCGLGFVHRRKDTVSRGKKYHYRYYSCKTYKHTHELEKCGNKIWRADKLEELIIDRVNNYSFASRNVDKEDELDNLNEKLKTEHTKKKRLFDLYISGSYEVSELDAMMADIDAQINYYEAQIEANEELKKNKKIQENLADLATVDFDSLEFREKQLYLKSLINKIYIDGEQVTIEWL

[6] = target: T1, A118 integrase (HisInt); experiment: EMSA; predominantly dimer; 20 mM HEPES pH 7.5, 100 mM NaCl, 0.1 mg/ml BSA, 5 mM spermidine, 5 mM DTT, 5% glycerol, 50 ug/ml salmon sperm DNA, about 0.1 pmol probe in 10 ul, 30 C 30 min; 6% PAGE in 0.5x TBE at room temperature; conditions: protein: recombinant; tags: N-terminal His (pET15b); chain copies: 2; label: 32P; blunt
[7] = target: T1, A118 integrase (HisInt); experiment: protease protection; twofold molar excess of DNA; chymotrypsin or proteinase K; 20 mM HEPES pH 7.5, 100 mM NaCl, 0.1 mg/ml BSA, 5 mM spermidine, 5 mM DTT, 5% glycerol, 50 ug/ml salmon sperm DNA, about 0.1 pmol probe in 10 ul, 30 C 30 min; 6% PAGE in 0.5x TBE at room temperature; conditions: protein: recombinant; tags: N-terminal His (pET15b); chain copies: 2; blunt
[8] = dimer complex, apparent, panel assignment by order

attP 100 bp
Kd [1]: 48 nM
Kd [2]: 145 nM

attB 100 bp
Kd [1]: 72 nM
Kd ([2]; binds much less than attP): > 800 nM

Listeria phage A118 integrase, N-terminally histidine tagged, full-length (enzyme)
stoichiometry N [3]: 2

attL 100 bp
Kd [1, 8]: 75 nM

attR 100 bp
Kd [1, 8]: 60 nM

B1: attB -oB' half-site (dsDNA)
DNA 1: CCGCGCATAGGAGGAACCCTGGGACGCAAAGAGGGAACTAAACA
DNA 2: TGTTTAGTTCCCTCTTTGCGTCCCAGGGTTCCTCCTATGCGCGG
binding result [4]: no binding

B2: attP -oP' half-site (dsDNA)
DNA 1: GCCCGACCAAGTTCGCGCAGGAGGGGAAGAAGAAGAAACGAGAAACTAAA
DNA 2: TTTAGTTTCTCGTTTCTTCTTCTTCCCCTCCTGCGCGAACTTGGTCGGGC
binding result [5]: no binding
binding result [4]: no binding

B3: attP Po- half-site (dsDNA)
DNA 1: TTTAGTTCCTCGTTTTCTCTCGTTGGACTCCTCCTCGCTCGTCCCAGCCC
DNA 2: GGGCTGGGACGAGCGAGGAGGAGTCCAACGAGAGAAAACGAGGAACTAAA
Kd [6]: ~1000 nM

B4: attP 50 bp (dsDNA)
DNA 1: TTTAGTTCCTCGTTTTCTCTCGTTGGAAGAAGAAGAAACGAGAAACTAAA
DNA 2: TTTAGTTTCTCGTTTCTTCTTCTTCCAACGAGAGAAAACGAGGAACTAAA
binding result [7]: binds
